The results in this text go back to the supplement of paper PMC11502859.

The data set deals with HEK293T. Kind of data set: median enrichment of reporter reads in eGFP-reduced (low/intermediate) vs eGFP-high sorted cells (eGFP-extension fusion abundance) (ratio); higher = stronger loss of eGFP-fusion protein abundance (more destabilising extension).
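Further: lentiviral eGFP-IRES-mCherry reporter pool sorted by FACS 96 h post-transduction, gated on mCherry-high cells, Illumina read counts normalized per million, median across four biological replicates.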

In the case of RKDNSWKPQQFSIQGIYLRQIEYIL [ARL6], the median enrichment amounted to 6.56.

Consider LVLCS [PIGX], for which the median enrichment came to 9.44.

Turning to LPEKLCQLQGGSDFRKVV [HERPUD2], the median enrichment turned out to be 0.919.

Regarding QDPVVLFESLRP [HAVCR1], the median enrichment came out at 0.393.

As to RSAAIRWKPLEPEAAA [FXYD6], the median enrichment came to 12.

In the case of WHHLIDYGTRKSEGFHIR [PLPP6], the median enrichment came to 7.61.

With “RLWSRHPAEWGPRGCQLGALPLAATLWSGRVLHHQEDPILSSVSCPSCCGMLSTEPTAHLPLHLPESVSICNKRQPRLPRAVS [INAFM1]”, the median enrichment stood at 3.36.

Consider SDNL [PDLIM2], for which the median enrichment is 0.365.

Turning to WLSLRKGRRRGAQGHLLP, the median enrichment amounted to 28.3.

Consider RCRVFSSFFLLQEFVVT [MMP16], for which the median enrichment came out at 3.48.

For the substance “WNLLSMILPATPLPSLAQSRGAMLSAHPSCTLAPCSRDVSTHSLC [MYPOP]”, the median enrichment came to 7.81.

On to LEPAAPASHLCLERTSAACQF [ECHS1], for which the median enrichment is 0.709.

In the case of QTFCSYRLKYLLPIRFFCDMCLPAVN [CCDC59], the median enrichment was determined as 6.05.

For WYSFHYSI [BTN3A3], the median enrichment amounted to 6.28.

Take “WSDCPENQKSKETRETSSLVNEPIKSRSLKKYVSVKKENRIVTVSSKTNKSKSSPLEHSESDTLGCDFEFQESIHSLSHLSYD [CEP78]”: the median enrichment worked out at 1.3.

As to “LTSSLQRSESGGGSACREGLDLHIFSGVVRASPYLLLSPCEEDPDLASFPRRGWGVPRVPVLEGPPSPSLITVLFSAPPSAAR [ZNF646]”, the median enrichment amounted to 4.64.

As to “GGLLSVLGTPGPYRTRAAALSHPLGRRYGSSVPLASMWSGGDAAPVVGTSWGDPRPSLAGLSPVPISHSGPRADILIK [GUK1]”, the median enrichment is 2.98.

Take CVWGLAPCSPGPHCSHTLRLGPPSLLWC [TOM1]: the median enrichment amounted to 9.33.

Take YISLFVSMRCPTGPI [CADM1]: the median enrichment was found to be 15.7.

Regarding “SCVGHPTRHPSSLRRPVGRQGSRGFALLLSSRVMTLLSISSHYSPCLALRAALLSSQAAPVPSPSTLEWSSSACFPSHRPATT [RAB15]”, the median enrichment came to 5.5.

As for AAAAAAAAAA [Ala10], the median enrichment was 8.89.

On to “LKNKSPLQNTPPSHSAPQLPTTARLSSFASVASPALHALAGTVAAAFSCSVMPSSCLKQKKIMHCVF [STXBP1]”, for which the median enrichment was found to be 6.42.

Regarding CDQLSCTNFEV [IFNGR1], the median enrichment is 0.207.

For WWLWLQRT [FAAH], the median enrichment is 11.2.

For “PPTTPHQATPAASAFLGAERQPRPPVPSPPSHHRSSAPGRTVWPLPVPAMGSGWTPWAPPIAKPGRQLSLVPASGQPRVSPAS [CAPN1]”, the median enrichment is 6.04.

QHGGFGS [AKAIN1]: the median enrichment was found to be 0.844.

As for “RAPTLQPQTLCTPRCDAGRGPPPGRTDCRSWEPRHAQASAEGAAGGSARLDPWHLIKKFSLMSMVVGQPSSLSQQAHAASVTS [ZFPM1]”, the median enrichment worked out at 2.21.

For “LAQLPLSYSSATPQLPLSPAAARATARPGLSSARLTSARPAGLLKAVGRTPA [MED16]”, the median enrichment is 5.35.

CGLGRFS [IMMT]: the median enrichment stood at 0.695.

For the substance ESVAFLLFPH [NKAIN2], the median enrichment is 6.56.

Turning to “CLSGRANPENEDWKKEKKKNTSKVSSEIVLHLLYSLEDFHYVLTTLKCVNS [FOXP1]”, the median enrichment came to 9.44.

Take VVVVV [Val05]: the median enrichment was 10.3.

Take KRKLKNGCLELVLQLL [REG1B]: the median enrichment amounted to 6.65.

With “LAWDTEGPVRSIYCNSNCNLVLRRRESMFGQQNFSLSLKFTASISFPY [NUPR2]”, the median enrichment was determined as 7.51.

For the substance WFSPVICSINGLIINVSLRHDKHFNTQ [DNAAF1], the median enrichment was 13.3.

Consider GGGGGGGGGG [Gly10], for which the median enrichment worked out at 11.7.

Regarding “CLGKAGHKNLHEQYFFLNRMFYYSSQVLECLHTII [FAM24A]”, the median enrichment stood at 4.34.

In the case of RTQDSE [CD3G], the median enrichment turned out to be 0.492.

Regarding LVGWLLVFVSFLSCLLLKGNQK [MYCT1], the median enrichment amounted to 9.75.

KKNVEAIGLLGG [Degron KLHDC2]: the median enrichment stood at 5.08.

In the case of REA [NPSR1], the median enrichment was 4.09.

With TMEPPGGRQKKR [Degron FEM1C], the median enrichment was 0.496.

For the substance “QGLEGQEVGVRSPYSACCPGCAAQLDSASQHLPPRSFLLFIPIFTPKTSLSLFTPPKPLSHAGPLKPQLPTILREHPLPSLPF [GSTM2]”, the median enrichment turned out to be 5.62.

Turning to YPLRDSRCYLSSVPHFL [SYT9], the median enrichment was determined as 12.

RMNTCQE [OR52N4]: the median enrichment turned out to be 0.48.

For “YYVIRNLVAWPYLAAREPGRYVAGRLGMCPVKNSVDSLIKKKRKKDTMGTLYLVFILCMYRSSKKLHRISVTLYASGKQDWEL [CFAP61]”, the median enrichment came to 41.5.

Turning to LKSP [SPATA5L1], the median enrichment amounted to 0.47.

Take SPQGRAATRRDMPGRGQDKMQTFFFF [APOL1]: the median enrichment turned out to be 1.16.

With “LGYRFWKHLSLGPKEVLLPFWASITQVVPVLTAEETSLPLFVLSPSFFNSV [MS4A8]”, the median enrichment was 15.7.

On to WEKQAKEKSVTVPL [KIDINS220], for which the median enrichment stood at 0.839.

Consider “YKWQQNLTPRPANSASLVTLFWLLDGFHSSLGFVCEYCLLCFVFNCNG [OR7E24]”, for which the median enrichment came to 6.78.

Consider SKTWPENPQVLQRKTELGKGESWKDGAD [ABHD15], for which the median enrichment is 0.348.

Consider YPSL [KCNK2], for which the median enrichment is 0.357.

As for “YSQRGGQSQSQLLSCPLLPARALVLTPSCIPHLRSVY [SLC2A11]”, the median enrichment came to 11.1.

In the case of YSFKSNRIIFHLAVVRSN [SS18L2], the median enrichment is 12.1.

With “LSFRQFSSNGPFQGRPLPLRKSCDCILSDGNISMALLGYSA [HIST1H4B]”, the median enrichment is 5.72.

With GGGGGGGGG [Gly09], the median enrichment amounted to 3.85.

As for “CEQQMELWERGEQWGYRESSSALPLGQPHLPAVSPGHFSTSQVEVLQGPAATCIRRTSFSA [SPATA19]”, the median enrichment was 2.8.

For “LAHPKYACHLRPQAGHTGQPACRQDLPASSSQYSLQRLKCEAPAPPSALQPTGPGRTCPLSVSPSRVPRWRPLSTG [PAK6]”, the median enrichment was determined as 3.88.

Consider QGNPRSNQGGGS [POLA1], for which the median enrichment came to 0.576.

On to SGAGPGPRGGTSINSVAKLE [MYL7], for which the median enrichment worked out at 0.743.

For WEKN [C12orf65], the median enrichment turned out to be 0.333.

In the case of YLSVYLSIYLSIYLSIYVYLSCIYTRL [AK9], the median enrichment was 9.52.

On to “SGLELYPGPNSRTTRGLQTFLGGQAGQMAPPLGNAPSCAVERS [ELF3]”, for which the median enrichment amounted to 2.16.

For the substance SGTAVPACSPHLGRGSLAAFSLRSRST [AGAP1], the median enrichment came to 8.94.

For the substance EEEE [Glu04], the median enrichment was found to be 8.36.

Take YGEKIRNGCCT [WDR64]: the median enrichment turned out to be 0.76.

As for LPR [ATXN2L], the median enrichment was found to be 0.876.

“KCEACDKVSIWKSHLKDIGEFILERKLTNVRFLTRLGSDSHLEQHTGLHTGEKPYKCNECGKAFGKQSTLIHHQAIHGVGKLD [ZNF611]”: the median enrichment was 6.92.

For “MGNYILLCQGQQTPAVKGIPSARRLFGACMFIAPARPDRGLLHKPCLVHFFTCKGTECGLRFGTRGGFGNYGAQVIILRSFIQ [AHNAK]”, the median enrichment turned out to be 9.08.

As to SGQGPRTQCLARPLPLAFEAKASSR [AGT], the median enrichment was determined as 0.949.

In the case of “YNMTYSYSSLLSPLYSFFFNIFMTFKSLLYSLARKCTFFLLV [ADAMTS12]”, the median enrichment was determined as 4.84.

Take WYHMFSWYVN [ABHD10]: the median enrichment is 5.5.

As to “YGRDWHRLAFQHLLSPTLHSLLPCLSNKPNAACEAFFIFLFTLFLMLPTLPFRFFC [RSU1]”, the median enrichment was determined as 10.2.

Consider RQLQELNSLAPEELAAQEAKLAF [TMEM81], for which the median enrichment is 0.0302.

Turning to YSPQAD [YAP1], the median enrichment was 0.413.

Consider “EVGVRSPYSACCPGCAAQLDSASQHLPPRSFLLFIPIFTPKTSLSLFTPPKPLSHAGPLKPQLPTILREHPLPSLPFPALKPA [GSTM2]”, for which the median enrichment is 5.73.

For RLMW [KRTAP13-3], the median enrichment stood at 3.36.

Consider SCPPRCSQGNLAPRS [ZIC4], for which the median enrichment came out at 0.982.

Turning to “ACVARPDKHLQMAAAPTWDLPRRLEQKGLSLGWCFSSRVLGCMFCTASREGVSGGHHLWDTGSKGPVHSVISFLAPASPTSPR [TMEM141]”, the median enrichment amounted to 4.72.

Turning to YRTGIHEQKAESQTCLS [CD5], the median enrichment amounted to 0.587.

With QSSQSSARP [SNX32], the median enrichment amounted to 0.324.

WKDN [PIK3CA]: the median enrichment is 0.482.

With LKLQLNRGSRKLLSLRGGV [MIP], the median enrichment is 14.1.

As for “LKSKLVVLQLCVTFSPSAVSVQHLFHKCFVFSNTVFTTLLACICMFYTKAYTVLCEAIRSRKGIVNNIKHFYTKIICFVIRF [SLC44A5]”, the median enrichment was 2.32.

In the case of RSC [DCK], the median enrichment amounted to 0.415.

Consider LNQS [CFH], for which the median enrichment is 0.385.

With SKHLKC [FAN1], the median enrichment was 0.578.

With “LECSPFPCPGWQGRGRVKGMCCNTEDRKKKPLDTARDGG [ORMDL3]”, the median enrichment turned out to be 48.4.

As to GGGG [Gly04], the median enrichment is 5.17.

RLNICSVLKLMCFVGV [FBXL4]: the median enrichment is 10.3.

With LKEIWEIL [ZNF418], the median enrichment was 16.1.

For the substance QVNANSIVEPGV [PRKCB], the median enrichment came to 0.284.

Consider “SGLLALTLQPTLAVWPSPGSFPAPLPLFPVLLNSPSWRVQALGMGGTRPHSFHRALRPDTADQPHSAQEAASGVGAQRGTAAS [BAP1]”, for which the median enrichment turned out to be 1.74.

As to “SIILSPFGSCVERECEIYIISFWERLVLDAP [HSP90B1]”, the median enrichment turned out to be 10.5.

Take EKSYMAKRSRSKFRSHSQGNQYLPI [SNX24]: the median enrichment amounted to 1.3.

In the case of CERGLSSSLPAPSSPRPSSLCAW [HOXC10], the median enrichment was found to be 2.77.

Consider “LAAWDRSTNYTGSGIRVSKMSYECRSEGHMLTLESVER [NLRP7]”, for which the median enrichment came out at 13.6.

Turning to WLQNY [IFNAR2], the median enrichment was 10.5.

Regarding “SGSRRSRRDPHGSIALASDLAWRYFCRELGSRNASDLSALHIVGLKSGWELAKSLFRLFN [MRPL34]”, the median enrichment amounted to 8.92.

For the substance LKILVLLNYLI [TIPARP], the median enrichment came to 10.8.
